How the values were obtained:
Conditions in all cases: 1 mM MgCl2, 0.5 mM EDTA, 0.5 mM DTT, 50 mM NaCl, 10 mM Tris-HCl pH 7.5, 0.05 mg/ml poly(dI-dC), 10 ul, room temperature 30 min; footprinting in same buffer …
[1] = molecular target: T1, His-AphA (Vibrio parahaemolyticus RIMD 2210633) (UniProt Q87L53); test: EMSA
T1 sequence: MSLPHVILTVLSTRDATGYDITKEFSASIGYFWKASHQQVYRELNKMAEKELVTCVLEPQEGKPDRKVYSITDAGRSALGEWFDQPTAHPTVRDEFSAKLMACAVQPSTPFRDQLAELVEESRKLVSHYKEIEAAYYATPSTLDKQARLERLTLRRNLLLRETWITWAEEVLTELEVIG

[2] = molecular target: T1, His-AphA (Vibrio parahaemolyticus RIMD 2210633); test: competition
[3] = molecular target: T1, His-AphA (Vibrio parahaemolyticus RIMD 2210633); test: DNase I footprinting

Row | Sequence | binding [1] | binding [2] | binding [3]
1 | AACTTCCAACCACATAATTGCGCAGCAAATAACCAGACATTTACACTACAAAAAACCCATAAAATACCAACAAATTAGAATTATTAACTACAAAATAACTCTATTGAGTATTATGTTAGTTTTTCAGGGTAATTTTGTCCTAGTATTCCACTTCATGCTTATTATTTATATACTACTTGCCTGCTGAGAGCTCATAAATCCAATCATACCTGCTCCAGCC (double strand) [aphA promoter fragment] | binds | binds | binds
2 | AGTGGGTTGAAAGTCACATCCTTTTGCGGAAAATTCTTGGGAGCGCTGCCAAATTTTCGAAAGTTTACAGCAAAACTTATCAATAATAATGACATTACTGTCTATAAATTATCCATCAGATGTTGACCTTGTGCATATGCACCATTACACTCATCACTGCTTAAAGCAATTATTAAAATAATCAATTAGGGGGTTACCCCCAACAACAACTCAAATGGCAAGGAAAATGGATATGGACTCAATTGCAAAGAGACCTAGAACTAGGC (double strand) [opaR promoter fragment (footprinting)] |  |  | binds
3 | AGTGGTTGCTTATGAATCAATCCCAGGAAAAGGCGAGAACAGCGAACCTTCAACTCGTTAACATTTTATTTTCATTTACATTTTGACTAACTCAATTGTTAATAAATTACCTAAATTGCATTTTGAAATTGCAGAATGCAATTAAGTTTTGTTTTTTGCAAAAATTTATATAGGCAATATCAGTTTATATGAGATCTTGTGCCCAAAAATAAAGCTTTGAAAATTGGCATGATTAATGCATAATACTTCTCGACC (double strand) [qrr2 promoter fragment] | no binding |  | 
4 | CGACGCATTATTAACCAGCACTTTCGCAAATTGCATTTGCAAAATGCAATAGCATGCAAATATGCCACTTGTTACATTGCTACTAATCACTTTCTCAGCAAAAAACCAACTACTACTTTATGATTATCCATTAGCTTTCATATTTTTACCCTATACTGCTAATTAATGAGGAAAAATACCTCAGTAAATGGATTTCACGGTT (double strand) [qrr4 promoter fragment] | binds |  | binds
5 | GGATAAGTTCAAATTGGATCCAGCCTTAGCAGGCTCGGTTATTCTAACGACAGTGACAGATGTGGTTGGTTTTTTCGCCTTTTTGGGAACGGCGAGTTTAGTCATGCTCTAAAAAGTCCACTGTTTATTAATCAATCATTAGCATAATAGAGACAAATTGCATAACGCACTTGCAAATTGCAAAAACATTCAAAGTTTAAGCAACGTATGTCACAGAAACCAC (double strand) [qrr3 promoter fragment] | no binding |  | 

— PMC3440409
